A word on the Kd: it is the concentration at which binding is half-saturated.

The assay has as its target recombinant human interferon beta-1a (human), P01574. Put plainly: SPR; IFN-β immobilised on ProteOn GLH chip by amine coupling; Ca^2+-loaded S100 as analyte (0.25–5 µM S100A1, 0.5–5 µM S100A4/A6, 5 µM other S100); 25 °C; 10 mM HEPES, 150 mM NaCl, 0.01% TWEEN 20, pH 7.4, 1 mM CaCl2; heterogeneous ligand model. Particulars: remark: other sources report otherwise. For orientation: Surface plasmon resonance follows binding to a sensor surface in real time, without labels.

B1: recombinant human S100B, P04271 1-92 (natural protein)
chain: MSELEKAMVALIDVFHQYSGREGDKHKLKKSELKELINNELSHFLEEIKEQEVVDKVMETLDNDGDGECDFQEFMAFVAMVTTACHEFFEHE
With B1, the Kd is over 10 µM.

Values taken from publication PMC7764042.
